From publication PMC6943137, “A novel 5′-hydroxyl dinucleotide hydrolase activity for the DXO/Rai1 family of enzymes” come the findings set out here.

In the data set the target is T1, DXO (mouse, UniProt O70348 1-397).
T1 sequence: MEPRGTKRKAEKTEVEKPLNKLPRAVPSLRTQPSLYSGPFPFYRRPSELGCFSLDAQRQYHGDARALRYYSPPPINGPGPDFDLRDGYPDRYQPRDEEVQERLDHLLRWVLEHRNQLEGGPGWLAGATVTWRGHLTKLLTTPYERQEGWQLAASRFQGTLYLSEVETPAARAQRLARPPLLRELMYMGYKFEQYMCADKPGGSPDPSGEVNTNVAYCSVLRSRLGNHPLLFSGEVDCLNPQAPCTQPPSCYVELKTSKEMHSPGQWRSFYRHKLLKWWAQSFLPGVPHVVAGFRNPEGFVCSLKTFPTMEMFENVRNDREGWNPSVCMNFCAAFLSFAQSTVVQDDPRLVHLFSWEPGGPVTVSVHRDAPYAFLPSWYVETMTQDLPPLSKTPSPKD
The experiment in a line: X-ray crystallography, 2.0 A; Ca2+ (one ion); RNA occupancy ~80%, no hydrolysis in crystal; Crystal structure; crystallization buffer not in the material. Nuclease assays (turnover, not listed): 10 mM Tris pH 7.5, 50 mM KOAc, 2 mM Mg(OAc)2, 2 mM MnCl2, 1 mM DTT, 0.1 mM spermine. The following applies: protein: recombinant; tags: His-tag (pET28a); single strand.

With UUUUUU (XNA, phosphorothioate backbone; 5'-hydroxyl (5'-PO4 removed by CIP)) [5'-OH U(S)6 RNA], the binding result is on record as “binds”.
